The values that follow are results of earlier work, collected in paper PMC4888498.

Data set [1] deals with T1, Ss-LrpB Sulfolobus solfataricus (Saccharolobus solfataricus P2) (UniProt Q7LX67).
T1 sequence: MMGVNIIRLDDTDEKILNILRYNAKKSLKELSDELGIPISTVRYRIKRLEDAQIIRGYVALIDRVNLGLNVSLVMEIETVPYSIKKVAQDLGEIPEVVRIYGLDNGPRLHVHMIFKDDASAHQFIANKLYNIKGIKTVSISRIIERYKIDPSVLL
The data set is described as follows: EMSA.

In data set [2] the target is T2, TvFL3 Thermoplasma volcanium (Thermoplasma volcanium GSS1) (UniProt Q979L0).
T2 sequence: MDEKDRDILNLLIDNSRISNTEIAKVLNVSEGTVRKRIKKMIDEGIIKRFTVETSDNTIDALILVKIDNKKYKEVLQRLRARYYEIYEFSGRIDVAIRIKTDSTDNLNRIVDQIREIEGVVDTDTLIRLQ
The data set is described as follows: EMSA. In general terms: Mobility shift assays separate free from complexed probe on a gel.

As for “GAAATTAATACGACTCACTATGGGGAGAGAGACTTGCAAAATTTGCAACTGTGTGTCGCTAGTTATTGCTCAGCGGTGG (double strand) [19468044-FFRP-7]”, the Ka in data set [1] was 3.5e+07 M⁻¹.
Take “GAAATTAATACGACTCACTATGGGGAGAGAGACGGACGAAATTCGTCCCTGTGTGTCGCTAGTTATTGCTCAGCGGTGG (double strand) [19468044-FFRP-2]”: the Ka in data set [2] was 9e+06 M⁻¹.
As for “GAAATTAATACGACTCACTATGGGGAGAGAGACGTTCGAAATTCGAACCTGTGTGTCGCTAGTTATTGCTCAGCGGTGG (double strand) [19468044-FFRP-3]”, the Ka in data set [2] is 8.2e+06 M⁻¹.
Turning to “GAAATTAATACGACTCACTATGGGGAGAGAGACGTACGAAATTCGTACCTGTGTGTCGCTAGTTATTGCTCAGCGGTGG (double strand) [19468044-FFRP-1]”, the Ka in data set [2] was 1.28e+07 M⁻¹.
Take “GAAATTAATACGACTCACTATGGGGAGAGAGACGGTCGAAATTCGACCCTGTGTGTCGCTAGTTATTGCTCAGCGGTGG (double strand) [19468044-FFRP-4]”: the Ka in data set [2] was 7.3e+06 M⁻¹.
